The source of these data is article PMC4260937 (Nature, 2014).

Some targets named below: FFL_001_surf1; FFL_001_surf2; FFL_001_surf4.
Common to all, as to assay: SPR
(In SPR one partner is held on a chip, and binding of the other changes the refractive index at the surface.)

The target of a further experiment is T1, FFL_001 (synthetic construct (designed scaffold)).
T1 chain: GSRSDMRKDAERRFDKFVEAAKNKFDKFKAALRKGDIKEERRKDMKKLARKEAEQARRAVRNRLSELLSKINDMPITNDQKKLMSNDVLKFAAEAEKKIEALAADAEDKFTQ

For orientation: Kd means the equilibrium constant for the complex coming apart. The low end stands for higher affinity, the high end for lower affinity. What is called kon is the second-order rate constant of association. Read a low kon as slower complex formation. By koff is commonly meant the rate constant with which the complex falls apart. Read a low koff as a long-lived complex. motavizumab Fab: in the experiment with FFL_001_surf1, the Kd amounted to 0.00632 nM and the on-rate constant (kon) was found to be 7.43e+06 M⁻¹ s⁻¹. In the experiment with FFL_001_surf2, the Kd came out at 0.0296 nM, the koff worked out at 0.000158 s⁻¹ and the association rate constant (kon) is 5.32e+06 M⁻¹ s⁻¹. In the experiment with FFL_001_surf4, this molecule showed a Kd of 0.0329 nM and a koff of 0.000158 s⁻¹.

B1: 17-HD9 IgG (antibody, V domains shown)
VH: QVQLQESGPGLVKPSETLSLTCVVSGGSFSSYYWTWIRQSPGKGLEWIGEMNGNSGYTNYNPSLQSRVTISKDASKNQFSLKLTSLTAADTAVYYCARDAIVMVFTDMRGRVDVWGPGILVTVSS
VL: DIQMSQSPSSLSASVGDTVTITCRASQGISNYLAWYQQKPGKAPKSLIYYTSHLESGVPSRFSGSGSGTDFSLTISSLQPEDFATYYCQQHNSYPRTFGQGTKVEIK
As to B1, the Kd in the experiment with FFL_001 was about 0.003 nM.
